For this assay, the target named is ErbB4 (full-length, expressed in mammalian cells) (human) (UniProt Q15303). Put plainly: cell-based or functional assay.
Chain of ErbB4 (full-length, expressed in mammalian cells) (human) (Q15303 26-1308 limits assumed): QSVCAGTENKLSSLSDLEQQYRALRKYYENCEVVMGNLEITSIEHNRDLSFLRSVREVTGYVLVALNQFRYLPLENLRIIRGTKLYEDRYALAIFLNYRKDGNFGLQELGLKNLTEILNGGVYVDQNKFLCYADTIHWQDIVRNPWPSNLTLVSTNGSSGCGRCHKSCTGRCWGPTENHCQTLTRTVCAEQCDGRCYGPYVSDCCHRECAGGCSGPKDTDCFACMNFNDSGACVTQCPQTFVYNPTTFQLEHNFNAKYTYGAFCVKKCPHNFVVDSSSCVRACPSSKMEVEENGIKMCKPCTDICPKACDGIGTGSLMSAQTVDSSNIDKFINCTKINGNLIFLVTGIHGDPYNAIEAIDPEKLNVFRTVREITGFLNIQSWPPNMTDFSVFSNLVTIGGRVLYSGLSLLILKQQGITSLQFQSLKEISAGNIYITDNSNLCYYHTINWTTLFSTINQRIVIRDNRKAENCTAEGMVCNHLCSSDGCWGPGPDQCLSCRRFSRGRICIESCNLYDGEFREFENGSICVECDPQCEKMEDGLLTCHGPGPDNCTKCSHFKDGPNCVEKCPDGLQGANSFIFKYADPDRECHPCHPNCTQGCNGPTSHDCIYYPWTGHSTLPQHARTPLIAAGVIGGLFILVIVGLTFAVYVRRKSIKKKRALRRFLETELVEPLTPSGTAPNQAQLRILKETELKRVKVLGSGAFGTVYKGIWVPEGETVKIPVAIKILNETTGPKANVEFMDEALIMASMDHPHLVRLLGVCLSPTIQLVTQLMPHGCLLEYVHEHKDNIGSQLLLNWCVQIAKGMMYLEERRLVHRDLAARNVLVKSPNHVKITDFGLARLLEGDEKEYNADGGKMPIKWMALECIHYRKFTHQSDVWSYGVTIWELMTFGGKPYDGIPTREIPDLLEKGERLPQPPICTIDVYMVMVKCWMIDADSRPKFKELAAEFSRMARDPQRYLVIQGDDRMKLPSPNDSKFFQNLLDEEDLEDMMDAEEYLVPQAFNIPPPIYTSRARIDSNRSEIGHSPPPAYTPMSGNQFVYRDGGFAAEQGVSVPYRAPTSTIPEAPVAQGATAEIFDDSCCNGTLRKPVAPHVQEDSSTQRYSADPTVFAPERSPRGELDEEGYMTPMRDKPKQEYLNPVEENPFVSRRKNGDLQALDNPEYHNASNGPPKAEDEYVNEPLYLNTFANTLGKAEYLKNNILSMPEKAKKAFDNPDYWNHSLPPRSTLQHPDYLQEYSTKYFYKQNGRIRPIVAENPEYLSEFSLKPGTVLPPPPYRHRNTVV

In the case of “NRG1 (recombinant human HRG-αEGF domain; R&D Systems) (from UniProt Q02297 177-241) (ligand)”, the NRG1 EC50, luciferase reporter gene under a promoter containing a serum response element (SRE), CHO-K1 cells expressing ErbB4 with or without Fyn is 1 nM.

The values are drawn from patent US20060029546A1, “Materials and methods for identifying anti-schizophrenic agents” (deCODE Genetics, Inc., priority 2004, published 2006).
